One series addresses T1, ChxH (Streptomyces sp. YIM 56141, UniProt I7D037).
T1 sequence (I7D037 1-262): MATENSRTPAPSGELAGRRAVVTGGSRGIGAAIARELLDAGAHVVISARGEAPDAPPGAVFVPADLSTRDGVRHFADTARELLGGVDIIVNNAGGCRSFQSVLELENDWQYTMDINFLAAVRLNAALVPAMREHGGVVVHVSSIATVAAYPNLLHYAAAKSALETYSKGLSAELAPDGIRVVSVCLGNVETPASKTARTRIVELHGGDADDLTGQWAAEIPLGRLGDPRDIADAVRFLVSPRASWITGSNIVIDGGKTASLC
In words: steady-state kinetics, initial velocity, Michaelis-Menten. Particulars: read-out: apparent KM; saturating NADP+; reverse reaction 1 to 10.

Substrate in series [1]: NC(=O)c1ccc[n+]([C@@H]2O[C@H](COP(=O)(O)OP(=O)(O)OC[C@H]3O[C@@H](n4cnc5c(N)ncnc54)[C@H](O)[C@@H]3O)[C@@H](O)[C@H]2O)c1
In words: purified protein. To be noted: saturating 1; reverse reaction 1 to 10; varied: cofactor.

Substrate in series [2]: NC(=O)c1ccc[n+]([C@@H]2O[C@H](COP(=O)(O)OP(=O)(O)OC[C@H]3O[C@@H](n4cnc5c(N)ncnc54)[C@H](OP(=O)(O)O)[C@@H]3O)[C@@H](O)[C@H]2O)c1
Put plainly: purified protein. Particulars: saturating 1; reverse reaction 1 to 10; varied: cofactor.

In the case of `C[C@@H]1C[C@@H]([C@H](O)CC2CC(=O)NC(=O)C2)C(=O)[C@@H](C)C1` [compound 1, Cycloheximide], at ChxH, the Km is 99 ± 7 µM.

B1: ChxH (Streptomyces sp. YIM 56141) (protein)
chain: MATENSRTPAPSGELAGRRAVVTGGSRGIGAAIARELLDAGAHVVISARGEAPDAPPGAVFVPADLSTRDGVRHFADTARELLGGVDIIVNNAGGCRSFQSVLELENDWQYTMDINFLAAVRLNAALVPAMREHGGVVVHVSSIATVAAYPNLLHYAAAKSALETYSKGLSAELAPDGIRVVSVCLGNVETPASKTARTRIVELHGGDADDLTGQWAAEIPLGRLGDPRDIADAVRFLVSPRASWITGSNIVIDGGKTASLC
With B1, in the series “purified protein [1]”, the Km turned out to be 233 ± 37 µM and the kcat turned out to be 13 ± 3 min^–1. Further, in “purified protein [2]”, the Km is 76 ± 5 µM and the kcat is 387 ± 23 min^–1.

The values above are taken from publication PMC4051428 (Organic Letters, 2014).
